Measured values from FireProtDB (doi:10.1021/bi300982v).

Conditions: Thermus thermophilus, pH 7, sodium phosphate 50 mM, transition: 2, reversible: yes, whole UniProt chain shown; for denaturant midpoint (higher = more stable): 25 °C, GdnHCl

B1: Cytochrome c-552 wild type, P04164 (protein)
chain: QADGAKIYAQCAGCHQQNGQGIPGAFPPLAGHVAEILAKEGGREYLILVLLYGLQGQIEVKGMKYNGVMSSFAQLKDEEIAAVLNHIATAWGDAKKVKGFKPFTAEEVKKLRAKKLTPQQVLAERKKLGLK
With B1 the “denaturant midpoint (higher = more stable)” value (shortened to “denaturant midpoint”) (absorbance) was 3.6 M, the “denaturant midpoint” value (far-UV-CD) was 4.1 M and the “denaturant midpoint” value (heme-CD) was 3.4 M. The Tm (Thermal, CD) was 95 °C, the “heat capacity change of unfolding” value (Thermal, CD) was 0.31 kcal/mol/K and the “unfolding enthalpy (calorimetric)” value (Thermal, CD) was 30.4 kcal/mol. The unfolding free energy (Thermal, CD) was 3.11 kcal/mol.
